Reference: patent US10973840B2, “Methods of sensitizing tumor cells to weak base chemotherapeutic drugs” (SOCPRA SCIENCES SANTÉ ET HUMAINES S.E.C., priority 2017, dated 2021)

How the values were obtained:
HT-1080 cells [1] = test: Intracellular localization of Dox by confocal live-cell imaging, HT-1080; type: cell-based, human; conditions: HT-1080, expression of the peptide, 1% O2, 4 h
Protocol: Cells were cultured in 25 mm-diameter glass coverslips (Thermo Fisher Scientific) and incubated under various conditions (as indicated in the FIG. legends). Cells were then incubated for 2 h in a medium containing Dox (2 μM). After the incubation period, cells were washed to remove excess Dox and left in drug-free media for 10 min. […] Coverslips were mounted on glass slides and placed on a 37° C. warmed stage of an Olympus Fluoview™ FV1000 (Olympus, Tokyo, Japan) confocal laser scanning microscope. Dox was excited with a green helium neon laser (543 nm) and emitted fluorescence intensity was measured. Images were acquired on the same day, typically from 10-20 cells of similar size from each experimental condition, using identical instrument settings.

NHE6-RACK1 interaction = test: Co-immunoprecipitation of NHE6 with RACK1 in HT-1080; type: cell-based, human; conditions: HT-1080, ectopic expression of the sequence, 1% O2, 4 h
Protocol: Cells were lysed on ice in NP-40-containing buffer (50 mM Tris-HCl pH 8.0, 150 mM NaCl, 1% NP-40, 5 mM EDTA, phosphatase and protease inhibitors). Cell lysates were centrifuged at 13,000 rpm at 4° C. and protein concentration determined using the BCA protein assay (Thermo Fisher Scientific). After a pre-clearing step with protein A/G-agarose beads (GE Healthcare), protein complexes were immunoprecipitated overnight at 4° C. Samples were incubated in SDS-loading buffer for 30 minutes at room temperature to avoid transmembrane protein aggregates upon heating in a boiling water bath. Proteins were separated by SDS-PAGE electrophoresis, transferred to a PVDF membrane and immunoblotting was performed as described, using anti-NHE6 (1:1000), anti-NHE9 (1:1000) anti-RACK1 (1:2000), anti-tubulin (1:5000), anti-actin (1:5000) anti-HA (1:1000), anti-PKC (1:200), anti-phospho PKC substrate (1:1000), anti-LAMP2 (1:200), anti-P-glycoprotein (1:200) and HRP-conjugated secondary antibodies (1/10 000)^66.

[2] = tested on: MDA-MB-231 tumor xenografts; test: Chorioallantoic membrane (CAM) xenograft assay, MDA-MB-231; type: in vivo, chick embryo; conditions: NHE6^527-588-overexpressing MDA-MB-231 xenografts on CAM, 1 μM Dox
Protocol: (§1) Fertilized eggs from white leghorn chicken were obtained from Public Health Agency of Canada (Nepean, ON). Ethics approval was obtained from the Ethics Committee on Animal Research of the University of Sherbrooke and all experimental procedures involving embryos were conducted in accordance with the regulations of the Canadian Council on Animal Care. Eggs were incubated in an Ova-Easy egg incubator (Brinsea) at 37° C. with 60% humidity. At Day 3, eggs were cracked as described^67. At Day 9, HT-1080 and MDA-MB-231 cell suspensions (1×10^6 and 2×10^6 cells, respectively) were mixed (1:1) with growth factor reduced Matrigel (BD Biosciences) in a total volume of 20 μl. Cell grafts were placed on top of the CAM and eggs were returned to the incubator for 96 h until Day 13 (n>6 chick embryos per cell line). When mentioned, 50 μl of Dox were added topically to the formed tumors (Day 13 after tumor cell grafting). At Day 16, chick embryos were euthanatized by decapitation. Tumors were removed and tumor volumes were calculated using the formula: (Dd^2/3). For RNA quantification, tumors were immediately snap-frozen in liquid nitrogen and kept at −80° C. until RNA extraction using the Trizol reagent.
(§2) To determine whether these observations were of relevance to tumor therapy in vivo, the inventors used an ex ovo chorioallantoic membrane (CAM) xenograft model in live chicken embryos^40. MDA-MB-231 or HT-1080 cells, or cells expressing either the NHE6^527-588 competing fragment or its scrambled counterpart were inoculated onto the CAM of 9-day-old chick embryos. After allowing 3 days for cells to engraft, tumors were treated with Doxorubicin or PBS. Four days later, chick embryos were euthanized, and tumors were removed for analysis (FIG. 10A). To first ascertain that tumors implanted in CAM developed hypoxia, total mRNA was extracted from tumors generated by untransfected HT-1080 cells and gene expression of the hypoxic markers CA9, GLUT1 and MCT4 was measured by qPCR. […]

HT-1080 cells [3] = test: Intracellular pH measurement (HPTS/SNARF-1) by confocal microscopy, HT-1080; type: cell-based, human; conditions: HT-1080, expression of the peptide, 1% O2, 4 h
Protocol: The pH sensing ratiometric dyes SNARF-1 and HPTS (Life Technologies) were used simultaneously for pH measurement of both cytoplasmic (C-SNARF-1) and endosomal/lysosomal (HPTS) compartments as previously described^30. Briefly, cells were cultured in 35 mm petri dishes (BD Biosciences) and used at 50% confluence. For endocytic labeling, cells were incubated overnight with HPTS (1 mM), washed, followed by a 20-min incubation with SNARF-1 (5 μM) to label the cytoplasmic compartment. Living cells were analyzed using an Olympus Fluoview™ FV1000 confocal microscope. Fluorescence emissions of both pH-sensing probes were recorded and subsequently analyzed as described^30.

NHE6 = NHE6 localization (cell-surface biotinylation, EEA1 immunofluorescence) in HT-1080; type: cell-based, human; conditions: HT-1080, expression of the peptide, 1% O2, 4 h
Protocol: Biotinylation steps were performed at […] Cells were grown on circular 15-mm diameter glass coverslips (Thermo Fisher Scientific) and incubated at 21% or 1% O2. Cells were then washed with PBS containing 1 mM CaCl2 and 0.5 mM MgCl2 (PBSCM) and incubated for 5 min with 0.3 mg/ml of EZ-Link Sulfo-NHS-SS-Biotin (Pierce) in PBSCM. Unreacted biotin was quenched using 100 mM glycine. Cells were fixed for 10 min at room temperature using 1% PFA in PBS. Prior to staining, cells were blocked with 5% of BSA for 1 h at room temperature. Biotinylated cells were stained with 5 μg/ml Streptavidin Texas Red (Invitrogen) for 1 h at 4° C. Coverslips were washed and mounted on a microscope slide using Vectashield mounting media (Vector labs).
Cultured cells were fixed with 1% PFA for 10 min at room temperature, permeabilized with saponin (0.05% in PBS) for 20 min, and blocked with 2% BSA in PBS for 30 min. Cells were then incubated with the appropriate primary and secondary antibodies as follows: anti-EEA1 (1/500), anti-Rab7 (1/500) and fluorophore-conjugated secondary antibodies (1/1000). Images were recorded using an Olympus Fluoview™ FV1000 confocal microscope using a 63× oil immersion objective.

HT-1080 tumor xenografts = test: Chorioallantoic membrane (CAM) xenograft assay, HT-1080; type: in vivo, chick embryo; conditions: NHE6^527-588-overexpressing HT-1080 xenografts on CAM, 0.5 μM Dox
Protocol: as §1, §2

[4] = tested on: HT-1080 overexpressing NHE6^527-588 peptide; test: MTT cell viability assay in HT-1080 expressing NHE6^527-588 or scrambled peptide; type: cell-based, human; conditions: HT-1080, overexpression of the fragment
Protocol: peGFP-N3-NHE6 was generously provided by Hiroshi Kanazawa (Osaka University, Japan). pcDNA3-HA/NHE6 was constructed from peGFP-N3-NHE6. For this, the entire NHE6 coding sequence was excised with BamHI and EcoRI restriction enzymes and cloned in pcDNA3-HA vector. pcDNA3-HA/NHE6^527-588 was designed from pcDNA3-HA/NHE6 using the following primers: […]
HT-1080 cells were stably transfected with Polyethylenimine (PEI, MirusBio) and positive cells were selected with Geneticin™ (G418) at 400 μg/mL. In the case of MDA-MB-231 cells, plasmids were transfected using Lipofectamine™ 2000 ([…]) and G418 was added to cell cultures at a concentration of 2 mg/mL.
Cells (5×10^3) were cultured in 96-well plates and pre-incubated under 21% O2 or 1% O2 for 4 h following the addition of drugs for 72 h. Cell viability was measured using the 3-(4,5-dimethylthiazol-2-yl)-2,5-diphenyltetrazolium bromide (MTT) dye (Life Technologies) according to manufacturer's instructions. Because hypoxic conditions may affect the reduction of MTT to formazan, incubation of all cell cultures with MTT were performed under normoxic conditions. Each experiment was performed in triplicate and at least three independent experiments were performed. Log-scale dose-response data were plotted on a graph and a three-parameter non-linear regression was applied to determine IC50 values. For calculation of the IC50s, both normoxic and hypoxic drug-treated samples were normalized with their untreated counterpart.
The middle portion (position 527-588) of the NHE6 cytoplasmic tail has previously been reported to interact with RACK1^31. Stable HT-1080 cells expressing the NHE6^527-588 fragment or a scrambled counterpart were generated.

B1: TKAESAWLFRMWYNFDHNYLKPLLTHSGPPLTTTLPACCGPIARCLTSPQAYENQEQLKDDD (protein)
chain: TKAESAWLFRMWYNFDHNYLKPLLTHSGPPLTTTLPACCGPIARCLTSPQAYENQEQLKDDD
notes: NHE6 cytoplasmic tail fragment 527-588, expressed in cells from a plasmid
- hypoxia-induced diminution in nuclear Dox and Dox accumulation within endosomes (HT-1080 cells [1]): greatly impaired
- hypoxia-induced interaction of NHE6 with RACK1 (NHE6-RACK1 interaction): prevented
- tumor volume compared to xenografts overexpressing a control peptide [2]: small but significant decrease in tumor volume
- hypoxia-induced intravesicular hyperacidification (HT-1080 cells [3]): greatly impaired
- hypoxia-induced NHE6 relocalization from endosomes to the plasma membrane (NHE6): greatly impaired
- tumor volume compared to xenografts overexpressing a control peptide (HT-1080 tumor xenografts): small but significant decrease in tumor volume
- increase in drug (Dox) sensitivity ([4]; hypoxia): 2.8 fold
- sensitivity of the cells to Dox ([4]; normoxic conditions): did not change
